Laboratory results reported in US8227408B2, “Leptin as an anti-amyloidogenic biologic and methods for delaying the onset and reducing Alzheimer's disease-like pathology” (Neurotez, Inc., priority 2005, dated 2012).

Tests used:
[1] = test system: Neuro2a cells stably transfected with hyg-sa134 (SEAP-APP); test: Aβ production by Neuro2a cells stably transfected with hyg-sa134 (total Aβ in media, sandwich ELISA); type: cell-based, mouse; settings: 5 h; about 400 ng/ml leptin alone or 10 μM water-soluble cholesterol alone; FIG. 4b
[2] = test system: Tg2576 mice; test: Chronic s.c. leptin infusion in Tg2576 mice under high or low fat diet; type: in vivo, mouse
Experimental: Blood was withdrawn (approximately 1 ml) from deeply anaesthetized animals by cardiocentesis and mixed with 25 μl of 164 μM EDTA anticoagulant. Plasma was prepared immediately and frozen at −70° C. Plasma leptin concentrations were determined by a radioimmunoassay (RIA) (Chung et al., Am. J Physiol. 274:R985-R990 (1998)), using a kit from LINCO Research, Inc. (Missouri).
APPswe (SEQ ID NO: 13) expressing mice (Tg2576) or wild-type littermates were maintained in pathogen-free environment at 25° C. on a 12-12 h light-dark cycle. Mice were euthanized between the ages of 31 and 40 weeks. They were provided ad libidum access for up to 9 weeks (i.e., 1 week prior to leptin treatments and 8 weeks during such treatments) to a high fat diet (D12451) containing about 45% of the total calories from fat (Research Diets, NJ) or to a low fat diet (D12450B) containing about 10% of the total calories from fat. Equal number of male and female Tg2576 mice under each diet were administered leptin or a placebo (PBS) from the age of 32 wks to up to 40 wks of age. For this, mice were anaesthetized with intraperitoneal injection of ketamine (55 mg/ml) and xylazine (7-10 mg/ml) and surgically fitted with an Alzet miniosmotic pump (model 2004, Durect Co, CA) placed subcutaneously. Local subcutaneous injection of 0.5 ml of 0.5% lidocaine insured postoperative relief. Half of the mice received daily about 20 μg leptin in PBS (0.25 μl/h of 3.33 mg/ml recombinant murine leptin) and the other half were infused with PBS. Four from each group (two males and two females) were euthanized after 4 weeks treatment. Osmotic pumps were replaced in the rest and the mice then treated for a total period of 8 weeks. Wild-type littermates were also treated with leptin under high or low diet regimens. […]
In panel (a), plasma leptin was quantified in one year old mice with the following genotypes: i) double mutant APPSwe/PS1M146V ii) single mutant PS1M146V and iii) wild-type (a cross between C57BL/6Ntac and B6SJLF2). […] Plasma Aβ was also measured in these mice prior to treatment. […] In panel (c), plasma leptin was determined by radioimmunoassay (“RIA”) (LINCO Research, Inc.) in 8 month old Tg2576 and WT littermate mice and then again following treatments as described in FIG. 4b. Leptin also was measured in WT but not Tg2576 mice prior to treatment. In panel (d), plasma insulin was determined by RIA (LINCO Research, Inc.) in 8 month old WT and Tg2576 mice and then again following a 2 month LFD or HFD with (+) or without (−) leptin infusion. In panel (e), plasma total Aβ (Aβ40 (SEQ ID NO: 4) plus Aβ42/43 (SEQ ID NO: 5/SEQ ID NO: 6) was measured in 8 month Tg2576 mice and then again following a 2 month LFD or HFD with (+) or without (−) leptin infusion. […]

[3] = test system: primary neurons; test: Filipin staining of primary neurons; type: cell-based, rat; settings: about 5 h
Experimental: Leptin was detected using a rabbit polyclonal antibody raised against mouse leptin, corss-reacting with human leptin (obtained from Dr. A. F. Parlow, Harbor-UCLA, CA). Immunofluorescent confocal microscopy was performed on 2% paraformaldehyde-fixed primary neural cells. Filipin staining was performed as described (Feng et al., Nat Cell Biol. 5:781-92 (2003)).
Neural cultures from ε15 rat cerebral cortex were processed for enrichment of neurons (a-d) or astrocytes (e-h) as described (Takeshima et al., J. Neurosci. Methods 67: 27-41 (1996)). After about 7 days to about 10 days in culture, cultures were treated for about 5 h with about 10 μg/ml cholesterol (b, f) or about 400 ng/ml leptin plus cholesterol (c, g) or leptin alone (d, h). Controls (a, e) were treated with culture media alone. Filipin staining was performed as described (Feng et al., Nat. Cell Biol. 5: 781-92 (2003)). Neurons (i-k) and astrocytes (l-n) prepared as above were treated with 0 μM (i, l), 5 μM (j, m) or 10 μM cholesterol (k, n) for 5 h. Immunostaining was performed for leptin (A.F.Parlow, Harbor-UCLA, CA).

B1: Leptin: peptide hormone controlling adaptive metabolic mechanisms to energy availability; leptin (Harbor-UCLA) in vitro, recombinant murine leptin in mice (protein, UniProt P41160 22-167, looked up)
Leptin: VPIQKVQDDTKTLIKTIVTRINDISHTQSVSAKQRVTGLDFIPGLHPILSLSKMDQTLAVYQQVLTSLPSQNVLQIANDLENLRDLLHLLAFSKSCSLPQTSGLQKPESLDGVLEASLYSTEVVALSRLQGSLQDILQQLDVSPEC
levels of Aβ detected in the media (percentage of corresponding controls) [1]: 56±5% | levels of circulating Aβ (total Aβ in the plasma) ([2]; Tg2576, both diets, 2 month leptin infusion): lower the levels of circulating Aβ under both diets | APP expression in adipocytes ([2]; adipose tissue of mice under high or low fat diets, data not shown): no apparent influence | fasting insulin levels (plasma, RIA) ([2]; all groups (WT and Tg2576, LFD and HFD), 2 month leptin infusion): decreased fasting insulin levels in all groups | brain Aβ load ([2]; chronic administration, s.c. Alzet pump about 20 μg leptin daily, up to 8 weeks): reduced the brain Aβ load | increase in filipin labelling by cholesterol ([3]; neurons, leptin about 400 ng/ml plus cholesterol about 10 μg/ml): prohibited an increase | filipin labelling ([3]; primary neurons, about 400 ng/ml leptin): diminished filipin labelling
